# Values joined by “and” are separate entries in the source; they are usually repeats but may differ in a detail not shown here. Equal entries are not always repeated.
# Conditions: Aspergillus oryzae (strain ATCC 42149 / RIB 40), 25 °C, CD, Glycine hydrochloride 0.05 M, reversible: Yes, whole UniProt chain shown
protein,measurement,setting,value
"Guanyl-specific ribonuclease T1 wild type, P00651 (protein) MMYSKLLTLTTLLLPTALALPSLVERACDYTCGSNCYSSSDVSTAQAAGYQLHEDGETVGSNSYPHKYNNYEGFDFSVSSPYYEWPILSSGDVYSGGSPGADRVVFNENNQLAGVITHTGASGNNFVECT",denaturant m value,"pH 3, Urea",1.57 kcal/mol/M and 1.73 kcal/mol/M and 2.04 kcal/mol/M
same,denaturant midpoint (higher = more stable),"pH 3, Urea",3.8 M and 3.2 M and 3.1 M
same,unfolding free energy,"pH 3, Urea",6.01 kcal/mol and 5.54 kcal/mol and 6.36 kcal/mol
same,denaturant midpoint (higher = more stable),"pH 5.5, GdnHCl",4.3 M and 3.7 M
same,unfolding free energy,"pH 5.5, GdnHCl",9.29 kcal/mol and 9.48 kcal/mol and 9.37 kcal/mol
same,denaturant midpoint (higher = more stable),"pH 6, GdnHCl",3.8 M and 3.7 M
same,unfolding free energy,"pH 6, GdnHCl",10.2 kcal/mol

# — FireProtDB (doi:10.1016/j.bpc.2005.09.016)
